Measured values from paper PMC8509488.
Values belong to the substance of their own block, whether it stands above or below them.

How the values were obtained:
[1] = target: CgHspB1 N-terminal deletion mutant (CgHspB1DeltaN), N-terminal 30 amino acids deleted, from pET23b (Chinese hamster); experiment: SEC; HPLC-SEC, SB-804HQ gel-filtration column, sample heated at the specified temperature for 30 min, buffer B (50 mM Tris-HCl pH 7.5, 0.1 mM EDTA, 150 mM NaCl) with or without 20% ethylene glycol, 1.0 mL/min
[2] = target: HspB1 from Chinese hamster, wild type (CgHspB1WT) (Chinese hamster); experiment: AUC; sedimentation velocity, Rayleigh interference optics, 40,000 rpm, buffer containing 20% ethylene glycol; 40 °C, 1.5 mg/mL
[3] = target: HspB1 from Chinese hamster, wild type (CgHspB1WT) (Chinese hamster); experiment: AUC; sedimentation velocity, Rayleigh interference optics, 40,000 rpm, buffer containing 20% ethylene glycol; 25 °C, 1.5 mg/mL
[4] = target: HspB1 from Chinese hamster, wild type (CgHspB1WT) (Chinese hamster); experiment: AUC; sedimentation velocity, Rayleigh interference optics, 40,000 rpm, buffer containing 20% ethylene glycol; 25 °C, 0.5 mg/mL
[5] = target: CgHspB1C145S, CgHspB1 mutant with Cys145 replaced by Ser (Chinese hamster); experiment: AUC; sedimentation velocity, 40 °C, 0.5 mg/mL, with DTT
[6] = target: CgHspB1C145S, CgHspB1 mutant with Cys145 replaced by Ser (Chinese hamster); experiment: AUC; sedimentation velocity, 40 °C, 0.5 mg/mL, without DTT (series with and without DTT)
[7] = target: CgHspB1S15D, phosphorylation mimic mutant of CgHspB1 (Ser15 replaced with Asp) (Chinese hamster); experiment: AUC; sedimentation velocity, Rayleigh interference optics, 40,000 rpm, buffer containing 20% ethylene glycol; 4 °C, 1.5 mg/mL
[8] = target: CgHspB1S15D, phosphorylation mimic mutant of CgHspB1 (Ser15 replaced with Asp) (Chinese hamster); experiment: AUC; sedimentation velocity, Rayleigh interference optics, 40,000 rpm, buffer containing 20% ethylene glycol; 4 °C, 0.5 mg/mL
[9] = target: CgHspB1S15D, phosphorylation mimic mutant of CgHspB1 (Ser15 replaced with Asp) (Chinese hamster); experiment: AUC; sedimentation velocity, Rayleigh interference optics, 40,000 rpm, buffer containing 20% ethylene glycol; 4 °C, 0.1 mg/mL
[10] = target: CgHspB1S15D, phosphorylation mimic mutant of CgHspB1 (Ser15 replaced with Asp) (Chinese hamster); experiment: AUC; sedimentation velocity, Rayleigh interference optics, 40,000 rpm, buffer containing 20% ethylene glycol; 40 °C, 1.5 mg/mL
[11] = target: CgHspB1S15D, phosphorylation mimic mutant of CgHspB1 (Ser15 replaced with Asp) (Chinese hamster); experiment: AUC; sedimentation velocity, Rayleigh interference optics, 40,000 rpm, buffer containing 20% ethylene glycol; 40 °C, 0.5 mg/mL
[12] = target: CgHspB1S15D, phosphorylation mimic mutant of CgHspB1 (Ser15 replaced with Asp) (Chinese hamster); experiment: AUC; sedimentation velocity, Rayleigh interference optics, 40,000 rpm, buffer containing 20% ethylene glycol; 25 °C, 0.1 mg/mL
[13] = target: CgHspB1S15D, phosphorylation mimic mutant of CgHspB1 (Ser15 replaced with Asp) (Chinese hamster); experiment: AUC; sedimentation velocity, Rayleigh interference optics, 40,000 rpm, buffer containing 20% ethylene glycol; 25 °C, 1.5 mg/mL
[14] = target: CgHspB1S15D, phosphorylation mimic mutant of CgHspB1 (Ser15 replaced with Asp) (Chinese hamster); experiment: AUC; sedimentation velocity, Rayleigh interference optics, 40,000 rpm, buffer containing 20% ethylene glycol; 40 °C, 0.1 mg/mL
[15] = target: CgHspB1S15D, phosphorylation mimic mutant of CgHspB1 (Ser15 replaced with Asp) (Chinese hamster); experiment: AUC; sedimentation velocity, Rayleigh interference optics, 40,000 rpm, buffer containing 20% ethylene glycol; 25 °C, 0.5 mg/mL

stoichiometry N [1]: 6
Substance: CgHspB1 N-terminal deletion mutant (CgHspB1DeltaN), N-terminal 30 amino acids deleted, from pET23b (domain or fragment)

stoichiometry N ([2]; c(s20,w) peak a): 20
stoichiometry N ([2]; c(s20,w) peak b): 27
stoichiometry N ([2]; c(s20,w) peak c): 38
stoichiometry N ([3]; c(s20,w) peak a): 20
stoichiometry N ([3]; c(s20,w) peak b): 30
stoichiometry N ([4]; c(s20,w) peak b): 6
stoichiometry N ([4]; c(s20,w) peak c): 18
Substance: HspB1 from Chinese hamster, wild type (CgHspB1WT) (natural protein)

stoichiometry N ([5]; c(s20,w) peak a): 21
stoichiometry N ([5]; c(s20,w) peak b): 25
stoichiometry N ([5]; c(s20,w) peak c): 32
stoichiometry N ([6]; c(s20,w) peak a): 21
stoichiometry N ([6]; c(s20,w) peak b): 25
stoichiometry N ([6]; c(s20,w) peak c): 33
Substance: CgHspB1C145S, CgHspB1 mutant with Cys145 replaced by Ser (natural protein)

stoichiometry N [7]: 18
stoichiometry N [8]: 19
stoichiometry N [9]: 19
stoichiometry N [10]: 27
stoichiometry N [11]: 26
stoichiometry N [12]: 18
stoichiometry N [13]: 19
stoichiometry N [14]: 26
stoichiometry N [15]: 19
Substance: CgHspB1S15D, phosphorylation mimic mutant of CgHspB1 (Ser15 replaced with Asp) (natural protein)
